Read-outs that look alike come from different tables or passages of the source.
What was measured:
[1] = target: T1, cynomolgus monkey PD-L1/His (cynomolgus monkey (Macaca fascicularis), UniProt G7PSE7 19-239); experiment: ELISA, 200 ng PD-L1 protein coated per well
T1 construct: not shown: His tag
Protocol: The monkey PD-L1/His and murine PD-L1/His were expressed and purified in a similar way to the human PD-L1/His as described earlier. […] The synthesized full length mAb was named as Y1-IgG1mc. The ELISA assay was performed essentially in the same way as described in the previous section. Briefly, 200 ng of PD-L1 protein was coated on each well of Nunc MaxiSorp ELISA plate (Cat. No. 442404, Nunc, Thermo Fisher). After washing and blocking, indicated concentrations of anti-PD-L1 mAbs were added and incubated at room temperature for 1 hour. After washing, the bound anti-PD-L1 mAbs were detected using a HRP-conjugated goat anti-human Fc antibody (Cat. No. A0170, Sigma).

[2] = target: T2, full length human PD-L1 expressed on cells (human, UniProt Q9NZQ7 19-290); experiment: cell-based or functional assay
T2 sequence (Q9NZQ7 19-290 limits assumed): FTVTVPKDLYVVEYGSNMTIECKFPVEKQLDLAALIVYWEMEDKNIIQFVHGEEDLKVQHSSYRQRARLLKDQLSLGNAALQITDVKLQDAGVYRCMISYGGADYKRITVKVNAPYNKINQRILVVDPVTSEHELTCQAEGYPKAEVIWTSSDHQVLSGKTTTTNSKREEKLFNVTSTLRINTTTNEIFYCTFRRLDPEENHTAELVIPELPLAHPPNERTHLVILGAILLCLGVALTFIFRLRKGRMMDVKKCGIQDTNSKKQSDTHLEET

[3] = target: T2, full length human PD-L1 expressed on …; experiment: FACS competition with CD80/Fc on HEK293/PD-L1 cells
[4] = target: T2, full length human PD-L1 expressed on …; experiment: FACS competition with PD-1/Fc on HEK293/PD-L1 cells
[5] = target: T2, full length human PD-L1 expressed on …; experiment: cell-based or functional assay; remark: listed apart in the source
[6] = target: T2, full length human PD-L1 expressed on …; experiment: FACS competition with PD-1/Fc on HEK293/PD-L1 cells; remark: listed apart in the source
human PD-L1-ECD/His [7] = target: T3, human PD-L1-ECD/His (human, UniProt Q9NZQ7 19-238); experiment: SPR (BIAcore T-200), Fab, human PD-L1; koff may be too slow to measure
T3 construct: also called PD-L1/His; human PD-L1/His
T3 sequence (Q9NZQ7 19-238): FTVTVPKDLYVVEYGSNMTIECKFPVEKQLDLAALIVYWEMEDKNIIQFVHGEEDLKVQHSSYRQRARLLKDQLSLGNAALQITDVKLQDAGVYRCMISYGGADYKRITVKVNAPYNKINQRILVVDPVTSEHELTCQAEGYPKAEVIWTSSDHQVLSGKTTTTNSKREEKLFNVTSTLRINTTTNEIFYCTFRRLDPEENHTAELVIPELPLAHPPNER
Protocol: (§1) For affinity determinations of anti-PD-L1 Fabs, SPR assays were performed using BIAcore™ T-200 (GE Life Sciences). Briefly, human PD-L1/His was coupled to an activated CM5 biosensor chip (Cat. No. BR100530, GE Life Sciences) to achieve approximately 100-200 response units (RU), followed by blocking un-reacted groups with 1 M ethanolamine. A serial dilutions of 0.12 nM to 90 nM Fab samples were injected, mixed into the SPR running buffer (10 mM HEPES, 150 mM NaCl, 0.05% Tween20, pH7.4) at 30 µL/minute, and binding responses on human PD-L1/His were calculated by substracting of RU from a blank flow-cell. Association rates (kₒₙ) and dissociation rates (koff) were calculated using the one-to-one Langmuir binding model (BIA Evaluation Software, GE Life Sciences). The equilibrium dissociation constant (Kd) was calculated as the ratio koff/kₒₙ.
(§2) For affinity determinations of anti-PD-L1 Fabs, SPR assays were conducted using BIAcore™ T-200 instrument (GE Life Sciences, Shanghai, China) as described earlier. Association rates (kₒₙ) and dissociation rates (koff) were calculated using the one-to-one Langmuir binding model (BIA Evaluation Software, GE Life Sciences). The equilibrium dissociation constant (Kd) was calculated as the ratio koff/kₒₙ.

human PD-L1-ECD/His [8] = target: T3, human PD-L1-ECD/His; experiment: SPR (BIAcore T-200), PD-L1/His on CM5 chip, Fab injected
Protocol: as §1

human PD-L1-ECD/His [9] = target: T3, human PD-L1-ECD/His; experiment: SPR (BIAcore T-200), Fab, human PD-L1
Protocol: as §1, §2

[10] = target: T2, full length human PD-L1 expressed on …; experiment: FACS competition with CD80/Fc on HEK293/PD-L1 cells; remark: listed apart in the source
[11] = target: T1, cynomolgus monkey PD-L1/His; experiment: SPR (BIAcore T-200), Fab, monkey PD-L1
[12] = target: T1, cynomolgus monkey PD-L1/His; experiment: SPR (BIAcore T-200), Fab, monkey PD-L1; koff may be too slow to measure
human PD-L1-ECD/His [13] = target: T3, human PD-L1-ECD/His; experiment: SPR (BIAcore T-200), PD-L1/His on CM5 chip, Fab injected; koff may be too slow to measure
Protocol: as §1

T1 sequence (G7PSE7 entry or part of it): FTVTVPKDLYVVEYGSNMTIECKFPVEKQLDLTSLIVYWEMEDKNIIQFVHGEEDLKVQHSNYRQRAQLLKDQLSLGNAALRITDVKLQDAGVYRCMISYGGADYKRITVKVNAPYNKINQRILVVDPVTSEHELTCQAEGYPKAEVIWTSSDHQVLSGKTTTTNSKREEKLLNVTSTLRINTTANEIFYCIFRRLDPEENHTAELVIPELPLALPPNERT

Binder	binding result [1]	IL-2 release in HuT78/P3Z, IC50 [5] [µg/mL]	IL-2 release in HuT78/PD-1, EC50 [5] [µg/mL]	IC50 [6] [µg/mL]	koff (human PD-L1-ECD/His [7]) [s⁻¹]	Kd (human PD-L1-ECD/His [8]) [pM]	kon (human PD-L1-ECD/His [8]) [M⁻¹ s⁻¹]	Kd (human PD-L1-ECD/His [9]) [pM]	kon (human PD-L1-ECD/His [9]) [M⁻¹ s⁻¹]	IC50 [10] [µg/mL]	Kd [11] [pM]	kon [11] [M⁻¹ s⁻¹]	koff [12] [s⁻¹]	koff (human PD-L1-ECD/His [13]) [s⁻¹]	other results
hu333-4B2-IgG1mc (antibody, also called hu333-4B2-IgGlmc) heavy: EVQLVESGGGLVQPGGSLRLSCAVSGFSLTSYGVHWVRQAPGKGLEWVAVIWAGGSTNYADSVKGRFTISKDTSKNTVYLQMNSLRAEDTAVYYCAKPYGTSAMDYWGQGTLVTVSSASTKGPSVFPLAPSSKSTSGGTAALGCLVKDYFPEPVTVSWNSGALTSGVHTFPAVLQSSGLYSLSSVVTVPSSSLGTQTYICNVNHKPSNTKVDKKVEPKSCDKTHTCPPCPAPPAAAPSVFLFPPKPKDTLMISRTPEVTCVVVDVSHEDPEVKFNWYVDGVEVHNAKTKPREEQYNSTYRVVSVLTVLHQDWLNGKEYKCKVSNKALAAPIEKTISKAKGQPREPQVYTLPPSRDELTKNQVSLTCLVKGFYPSDIAVEWESNGQPENNYKTTPPVLDSDGSFFLYSKLTVDKSRWQQGNVFSCSVMHEALHNHYTQKSLSLSPGK light: DIQMTQSPSSLSASVGDRVTITCKASQDVGIVVAWYQQKPGKAPKLLIYWASIRHTGVPSRFSGSGSGTEFTLTISSLQPDDFATYYCQQYSNYPLYTFGQGTKVEIKRTVAAPSVFIFPPSDEQLKSGTASVVCLLNNFYPREAKVQWKVDNALQSGNSQESVTEQDSKDSTYSLSSTLTLSKADYEKHKVYACEVTHQGLSSPVTKSFNRGEC	binds														
hu333-4B2-IgG1mf (antibody) heavy: EVQLVESGGGLVQPGGSLRLSCAVSGFSLTSYGVHWVRQAPGKGLEWVAVIWAGGSTNYADSVKGRFTISKDTSKNTVYLQMNSLRAEDTAVYYCAKPYGTSAMDYWGQGTLVTVSSASTKGPSVFPLAPSSKSTSGGTAALGCLVKDYFPEPVTVSWNSGALTSGVHTFPAVLQSSGLYSLSSVVTVPSSSLGTQTYICNVNHKPSNTKVDKKVEPKSCDKTHTCPPCPAPPAAGPSVFLFPPKPKDTLMISRTPEVTCVVVDVSHEDPEVKFNWYVDGVEVHNAKTKPREEQYNSTYRVVSVLTVLHQDWLNGKEYKCKVSNKALAAPIEKTISKAKGQPREPQVYTLPPSRDELTKNQVSLTCLVKGFYPSDIAVEWESNGQPENNYKTTPPVLDSDGSFFLYSKLTVDKSRWQQGNVFSCSVMHEALHNHYTQKSLSLSPGK light: DIQMTQSPSSLSASVGDRVTITCKASQDVGIVVAWYQQKPGKAPKLLIYWASIRHTGVPSRFSGSGSGTEFTLTISSLQPDDFATYYCQQYSNYPLYTFGQGTKVEIKRTVAAPSVFIFPPSDEQLKSGTASVVCLLNNFYPREAKVQWKVDNALQSGNSQESVTEQDSKDSTYSLSSTLTLSKADYEKHKVYACEVTHQGLSSPVTKSFNRGEC	binds														
hu333-4A2-IgG1mc (antibody, also called hu333-4A2-IgGlmc) heavy: EVQLVESGGGLVQPGGSLRLSCAVSGFSLTSYGVHWVRQAPGKGLEWVAVIWAGGSTNYVDSVKGRFTISKDNAKNTVYLQMNSLRAEDTAVYYCAKPYGTSAMDYWGQGTLVTVSSASTKGPSVFPLAPSSKSTSGGTAALGCLVKDYFPEPVTVSWNSGALTSGVHTFPAVLQSSGLYSLSSVVTVPSSSLGTQTYICNVNHKPSNTKVDKKVEPKSCDKTHTCPPCPAPPAAAPSVFLFPPKPKDTLMISRTPEVTCVVVDVSHEDPEVKFNWYVDGVEVHNAKTKPREEQYNSTYRVVSVLTVLHQDWLNGKEYKCKVSNKALAAPIEKTISKAKGQPREPQVYTLPPSRDELTKNQVSLTCLVKGFYPSDIAVEWESNGQPENNYKTTPPVLDSDGSFFLYSKLTVDKSRWQQGNVFSCSVMHEALHNHYTQKSLSLSPGK light: DIQMTQSPSSLSASVGDRVTITCKASQDVGIVVAWYQQKPGKAPKLLIYWASIRHTGVPSRFSGSGSGTEFTLTISSLQPDDFATYYCQQYSNYPLYTFGQGTKVEIKRTVAAPSVFIFPPSDEQLKSGTASVVCLLNNFYPREAKVQWKVDNALQSGNSQESVTEQDSKDSTYSLSSTLTLSKADYEKHKVYACEVTHQGLSSPVTKSFNRGEC	binds														
hu333-1A Fab (Fab, not shown: human IgG2 CH1 (printed IgG2a-CH1); human constant region of kappa chain) heavy (part 1 of 2): EVQLVESGGGLVQPGGSLRLSCAVSGFSLTSYGVHWVRQAPGKGLEWVAVIWAGGSTNYNSALMSRLTISKDNAKNSVYLQMNSLRAEDTAVYYCAKPYGNSAMDYWGQGTLVTVSS heavy (part 2 of 2): HHHHHHHH light: DIQMTQSPSTLSASVGDRVTITCKASQDVGIVVAWYQQKPGKAPKLLIYWASIRHTGVPSRFSGSGSGTEFTLTISSLQPDDFATYYCQQYSNYPLYTFGQGTKLEIK															IL-2 release in HuT78/P3Z, IC50 [2]: 0.012 µg/mL; IL-2 release in HuT78/PD-1, EC50 [2]: 0.066 µg/mL; IC50 [3]: 0.049 µg/mL; IC50 [4]: 0.057 µg/mL
hu333-4A2 Fab (Fab, not shown: human IgG1-CH1; human constant region of kappa chain) heavy (part 1 of 2): EVQLVESGGGLVQPGGSLRLSCAVSGFSLTSYGVHWVRQAPGKGLEWVAVIWAGGSTNYVDSVKGRFTISKDNAKNTVYLQMNSLRAEDTAVYYCAKPYGTSAMDYWGQGTLVTVSS heavy (part 2 of 2): HHHHHH light: DIQMTQSPSSLSASVGDRVTITCKASQDVGIVVAWYQQKPGKAPKLLIYWASIRHTGVPSRFSGSGSGTEFTLTISSLQPDDFATYYCQQYSNYPLYTFGQGTKVEIK		0.005	0.05	0.05	1.03e-05	2.65	3.88e+06	2.65	3.88e+06	0.045	2.91	3.19e+06	9.3e-06	1.03e-05	
hu333-4B2 Fab (Fab, not shown: human IgG1-CH1; human constant region of kappa chain) heavy (part 1 of 2): EVQLVESGGGLVQPGGSLRLSCAVSGFSLTSYGVHWVRQAPGKGLEWVAVIWAGGSTNYADSVKGRFTISKDTSKNTVYLQMNSLRAEDTAVYYCAKPYGTSAMDYWGQGTLVTVSS heavy (part 2 of 2): HHHHHH light: DIQMTQSPSSLSASVGDRVTITCKASQDVGIVVAWYQQKPGKAPKLLIYWASIRHTGVPSRFSGSGSGTEFTLTISSLQPDDFATYYCQQYSNYPLYTFGQGTKVEIK		0.016	0.058	0.053	1.32e-05	3.5	3.78e+06	3.5	3.78e+06	0.062	2.5	3.2e+06	8e-06	1.32e-05	
